Data as given in the nanobody polyreactivity screen of Harvey et al. (2022).

Experiment: yeast display, Sf9 membrane polyspecificity reagent, FACS + sequencing; frameworks hold sequencing errors
In short: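 Galactose induction of a Saccharomyces cerevisiae BJ5465 synthetic nanobody display library ran 36–48 hours. The cells were then stained for 1 hour at 4 °C with 10% biotinylated, detergent-solubilized Sf9 membrane reagent, pulled down on streptavidin microbeads and FACS-sorted into low and high (top ~1%) gates on expression and reagent-binding fluorescence. Labels for polyreactivity follow the gate of origin.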

| Sequence | polyreactivity (PSR sort gate) |
| --- | --- |
| QVQLVESGGGLVQAGGSLRLSCAASGIIISVYALGWYRQAPGKERELVATISLSSGRTYYADSVKGRFTISRDNAKNTVYFQMNCLKPEDTAVYYCNAGGRTASRRYYWGQGTQVTVSS | low polyreactivity |
| QVQLVESGGGLVQAGGSLRLSCAASGIILDEYAMGWYRQAPGKERELVAAITWIGGSTYADSVKGRFTISRDNAKNTVYLQMNSLKPEDTAVYYCAADYPSLYVWYGYGWYKYDYWGQGTQVTVSS | low polyreactivity |
| QVQLVESGGGLVQAGGSLRLSCAASGIILDHYAMGWYRQAPGKERELVAAISSGTRTNYADSVKGRFSISRDNAKHTVSLQMNSLKPEDTAVYNCAATIYRRYRSKYSITSYWGQGTQVTVSS | high polyreactivity |
| QVQLVESGGGLVQAGGSLRLSCAASGIILDHYAMGWYRQAPGKERELVAAISSGTRTNYADSVKGRFTISRDNAKNTVYLQMNSLKPEDTAVYYCAATIYRRYRSKSSITSYWGQGTQVTVSS | high polyreactivity |
| QVQLVESGGGLVQAGGSLRLSCAASGIILDRNAMGWYRQAPGKERELVAAINSIGGSTYYADSVKGRFTISRDNAKKTVYLQMNSLKPEDTAVYYCAAPSTSSYYWGQGTQVTVSS | low polyreactivity |
| QVQLVESGGGLVQAGGSLRLSCAASGIILFRYAMGWYRQAPGKERELVAAISWSGGSTYYADSVKGRFTISRDNAMNTVYLQMNCLKPEDTAVYYCAADHKYYGFGEVDYWGQGNQVTVSS | high polyreactivity |
| QVQLVESGGGLVQAGGSLRLSCAASGIILHYYAMGWYRQAPGKERELVAAISARGGRTYYADSVKGRFTISRDNAKNTVYLQMNSLKPEDTAVYYCARYLRRSSPSPGYGYWGQGTQVTVSS | high polyreactivity |
| QVQLVESGGGLVQAGGSLRLSCAASGIILLRYTMGWYRQAPGKERELVAAISRSAGRTYYADSVKGRFTISRDNAKNTVYLQMNSLKPEDTAVYYCNKASWYNGEIDYWGQVTQVTVSS | high polyreactivity |
| QVQLVESGGGLVQAGGSLRLSCAASGIILPYYVMGWYRQAPGKERELVAAISSGGRTYYADSVKGRFTISRDNAKNTVYLQMNSLKPEDTAVYYCNAYFTGKWYDYWGQGTQVTVSS | high polyreactivity |
| QVQLVESGGGLVQAGGSLRLSCAASGIILRRYAMGWYRQAPGKERELVARISYRGGRTNYADSVKGRFTISRDNAKNTVYLQMNSLKPEDTAVYYCAAVAWYYHEGTAYNYWGQGTQVTVSS | high polyreactivity |
| QVQLVESGGGLVQAGGSLRLSCAASGIILRYYAMGWYRQAPGKERELVAAITRGGSTNYADSVKGRFTISRDNAKNTVYLQMNSLKPEDTAVYYCAADVVFWFSNVAWGDFGYWGQGTQVTVSS | low polyreactivity |
| QVQLVESGGGLVQAGGSLRLSCAASGIILSDYAMGWYRPAPGKERELVAAITSGGGSTYYADSVKGRFTISRDNAKNTVYLQMNSLNPEDTAVYFCAADLTSYYGGDYWGQGTQVTVSS | low polyreactivity |
| QVQLVESGGGLVQAGGSLRLSCAASGIILSYYVMGWYRQAPGKERELVAAISLRGGSRTYYADSVNGRFTISRDNAKNTVYLQMNSLKPEDTAVYYCAKLRWVYGRQTLMDYWGQGTQVTVSS | high polyreactivity |
| QVQLVESGGGLVQAGGSLRLSCAASGIILTVYAMGWYRQAPGKERELVATISRRGGNTYYADSVKGRFTISRDNAKNTVYLQMNSLKPEDTAVYYCNKAYQYGGYYYWGQGTQVTVSS | high polyreactivity |
| QVQLVESGGGLVQAGGSLRLSCAASGIILVYNAMGWYRQAPGKERELVAAISSSGGTTYYADSVKGRFTISRDNAKNTVYLQMNSLKPEDTAVYYCNAALPVTRSERYGSDYWGQGTQVTVSS | low polyreactivity |
| QVQLVESGGGLVQAGGSLRLSCAASGIILYGYDMGWYRQAPGKERELVAAISSSGGSTYYADSVKGRFTISRDNAKNTVYLQMNSLKPEDTAVYYCAASKRYYGQLLTGGYYGYYYCGQGTQVTVSS | high polyreactivity |
| QVQLVESGGGLVQAGGSLRLSCAASGIILYVNAMGWYRQAPGKEREFVAAISWGGGSTYYADSVKGRFTISRDNAKNTVYLQMNSLKPEDTAVYYCAAEFWSGYPTYTYDYWGQGTQVTVSS | low polyreactivity |
